Results published in a protein production outcome set (Wang et al. 2014).

Assay: label from the status in PepcDB records
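Also: failed if final PepcDB status was selected cloned or expressed and not failed if soluble or beyond.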

| Sequence | protein production |
| --- | --- |
| MDPEVFAQARLRMDQLTKPPRALGYLEEVALRLAALQGRVKPELGRGAVVVAAADHGVVAEGVSAYPQEVTRQMVLNFLRGGAAINQFALAADCAVYVLDVGVVGELPDHPGLLKRKVRPGTANLAQGPAMTPEEAERALLAGREAARRAIAEGATLLAAGDMGIGNTTAAAALTAALLGLPPEAVVGRGTGVGEEGLRRKRQAVARALARLHPGMGPLEVAAEVGGLELVAIAGIYLEGYEAGLPLVLDGFPVTAGALLAWKMAPGLRDHLFAGHLSREPGHRHQLEALGLRPLLDLDLALGEGTGAVLAMPLLRAAARILHMATFQEAGVSRG | not failed |
| MKFKTRDLVLIPLFTAMTIIGAFIKIPVGVVPINLQFLFTALSGVLLGGALGAVSQILYVALGLIGLPVFTSGGGLSYIFTPTFGYLIGYILAAFIIGKITHSRKPKFTTIFFSCILGLIAVYFIGTTYLYIILNYVAGKNVSIIASIKLGVLMFIPGDIVKCIITALLGSRILPILNKTSLNN | failed |
| MSDTRRCVVIPAVKKNAVIPDQLVKRLAGVTLIQRAIDTAKALAPGDDIVVVTDSQEIALICERNGVRHVCNPGLHLATLDIVRELRGVLEDLARSYGHIVIYRASCPLLTADDIEDAYATFLREGADCLVTVKSVRHRVWEKRNGGLDALLSQDETEPSIYVESKALVMLDASALTRGEVRKVVPYFLNDRAIEINSYQDWWICEKLLCRKHIVFVVAGYPAIGMGHIFRALMLAHEVADHRITFLCTRESELAASNIAARDYRTRVQQGDDLAADVLSLRPDLVINDILNTDADYVGRLREAGVRVVNFEDEGPGAHLADLVVNALYEEKVDDPRFLHGHRFFCLRDEFVNGVRNDYRDPVRCVLVTFGGTDHSDFSRGTLDAIEPLCRERGITIRLVAGPGYAHKDAMQEHVERLGSPLVEFTYATNVMSRMMEGADLAICSAGRTVYELAHMRVPAIVMAHHEREGRHTFARGRNGFAYLGVMEHFDGAKLTRVFTQLLDAGNRRRLFDRQARFDFIRNKADVVRRITALLDDTPAPENA | failed |
| MNIRMGTKGKRPLRSLTPRDKIHAIQRIHDGESKASVARDIGVPESTLRGWCKNEDKLRFMSRQSATDNLCADALGDKMDGGGGGGGGAGGGGLLGPPEKRQRLDGALPLNFSNKLKFDELAFKRSPLNGLDYSTNKNLADLGYNGLPVDYAAFNGGVKAKVFGADINRPAADPSLNAISPLSSLTHLSGLTGISQSPLAISFNELTTNLNLLAQLNPGLAAMSGLNSF | not failed |
| MTAAQFAALSPLVVLAIAAVAAMMLVPLARLQIVQASAAAGLAIAAALVLLRIGAPAAPMGALFTDDGPARFGIVFACLVSLGALVFLRTGHPAKEAPSLLVLVAIGAATLAGAGHAATLFLGIEILSLSLIALFAFRLTRQGLEAAYKFLVMSGLASSALLLGIALIFAETGALDFAGWGGRGALTAFGTALLLAGLAFKFSLVPFHMWTPDAFEAAPASAATLAGVVSKSAVAIVILRLALTAHLPEPVWSQGLAALGGASVLIGNLLALRQPQLPRMLGYSTIAHSGYIALIIASGTPHAGEAVLFYLAIYAPAMLGALCVSAALGRAPTLPDLHGLMKRRPLEAIALSLSLLSLAGLPAAGGFIAKLFLLRVLIDGSLWVLVGIVVAGSSLGFFYYAKFFTAPFVGHTHDESEPLPQLDRGLLIVCIALIVIFGVAPAGLMNVVAATMAP | failed |
| MEHSGTSEVTGADTAGPDPQLAVTMGFTGFGKKARTFDLEAMFEQTRRTAVERSRKTLEAREKEEEMNREKELRKQIEDMEPAPSSSSAARERSQSSCRDTSSSDSESDDSSDSSDDELIGPPLPPKMVGESVTTVDEGTLGPLPPPLCEEGEDDDDDELDDEGEEDNPVQRIPDSHEITLRHGTKTVSALGLDPSGARLVTGGYDYDVKFWDFAGMDASFKAFRSLQPCECHQIKSLQYSNTGDMILVVSGSSQAKVIDRDGFEVMECIKGDQYIVDMANTKGHTAMLHTGSWHPKIKGEFMTCSNDATVRLWEVENPKKQKSVFKPRTMQGKKVIPTTCTYSRDGNLVAAACQNGSIQIWDRNLTVHPKFHYKQAHDPGTDTSCVAFSYDGNVLASRGGDDTLKLWDVRQFNKPLFSASDLPTLFPMTDCCFSPDDKLIVTGTSVQRGCGSGKLVFLERRTFQRVYEIHITDASVVRCLWHPKLNQIMVGTGNGLAKVYYDPNKSQRGAKLCVVKTQRKAKQAETLTQDYIITPHALPMFREPRQRSTRKQLEKDRLDPLKSHKPEPPVAGPGRGGRVGTHGGTLSSYIVKNIALDKTDDSNPREAILRHAKAAEDNPYWVSPAYSKTQPKTMFAQVESDDEESKNEPEWKKRKI | failed |
| MLDNRPIGVFDSGIGGLTIVKNLMSILPNEDIIYFGDIARIPYGTKSRATIQKFAAQTAKFLIDQEVKAIIIACNTISAIAKDIVQEIAKAIPVIDVITAGVSLVDNLNTVGVIATPATINSNAYALQIHKKNPNIEVYSNPCGLFVSMIEEGFVSGHIVELVAKEYLSYFHDKNIQALILGCTHYPIIKESIAKILDVKLIDPSLQASKMLYSLLFENKLLNTTKSNPEYRFYVTDIPLKFRSVGEMFLQTEMQHLEIVSLDSY | not failed |
| MADPIRIFIGSGEASRIERQVAIDSLQRMTDRPLAITAFNGTHNALEVLGEPPRPAPMSLRVKYWNATEFSLYRFLIPELCGYQGRAIYIDSDVVCLHDIGELFDTDLEGADFLAKAEAYPDRAGALWGLSVVLFDCDRCRFPLEQFIDELEAGVYDYRDLPCMGPRFLNKRPYQIGALDPRWNSFDFADRETRLIHYTDLKRQPWKRPGHPYGDLWFKAMQQALDSGILTDTEISQAIKRFNVRDDIREGNRPRWLTRQRLRSWLRQVKQQLRPVKV | failed |
| SPLGQIQLTIRHSSQRNKLIVVVHACRNLIAFSEDGSDPYVRMYLLPDKRRSGRRKTHVSKKTLNPVFDQSFDFSVSLPEVQRRTLDVAVKNSGGFLSKDKGLLGKVLVALASEELAKGWTQWYDLTED | not failed |
| MGKIHELSSVLADQIAAGEVVERPASVVKELVENAVDAHATQVDILVQESGVQSIRVIDDGDGIDDAEVLTAFKRHATSKITSREDLFRVHSLGFRGEALPSIASVADVVMNTSTGATGTSIHYRGGKLLQQSPAPLRQGTDITVTDLFFNTPARLKYLKSPQTELANILDVVNRIALSYPAVAFRLVHNAKELLKTAGRGDLQQVIAGIYGVQNARKMVAIQGSTTDFKLSGFVALPELTRASRQYITVLINGRAIKNQQLTKAVIKGYGSKLMVGRYPIAVIALTMDPLLVDVNVHPTKQEVRLSKEPELAKLVSTTITDRLVDVNLIPSALTNLGSHRREHLNTDQLAMDLNAVSSQYQVADKTTPASTEQFAASLAAATMQPSSATTMVSTTSAQPSAVNRAAVSAVVPSESAASSANQPIMISHRDELTATPVQAFDQRYQSESGALPFGETAEPLETSTAASAPTSEAPDTERFPQLRYLGQMHGTYLLAEADDGMYILDQHAAQERINYEYYRQAIGEVSADQQNLLVPIILDYPTSDVLKIKEKLPLLAELGIHLESFGGNSFIVHAHPTWFKAGQEEDTIREMIDWLLQDDKLTVAQFREKSAIMMSCKRAIKANHHLDDQQARALLAKLPTCENPFNCPHGRPVTVHFTNSDMERMFKRIQDSHEARD | failed |
| MHSTIGRLLEQTADAYPDRDAVVYPDRNIRYTYAQFDSLCRQTAKGLMRMGIGKGDHVAIWASNISEWLAVQFATAKIGAVLVTVNTNYQAHELDYLLKQSDAAALIIMDSYRGTSYPDIVNSLIPELQEAKPGQLKSERYPFLKTLIYIGNKRLSGMYHWDDTEILAKTVTDAELEERMNSLDKDNVINMQYTSGTTGFPKGVMLTHFNVINNAANIAECMALTSQDRMCIPVPFFHCFGCVLGVLACVSVGAAMIPVQEFDPVTVLKTVEKEKCTVLHGVPTMFIAELHHPDFDAYDLSTLRTGIMAGSPCPSEVMKAVIERMGMKDITIAYGQTEASPVITQTRANDSFIRRVETTGRALPHTEVKIVEPGTCQEVQRGMQGELCTRGYHVMKGYYKDKDATRKAINHDGWLFTGDLAVMDEDGYCRITGRLKDMLIRGGENIYPREIEEFLYQHPAVLDVQVVGVPDAKFGEEAAAWIKLKDGKSVSPDELKAYCKGKIARHKIPRYVIFTDDYPMTAS | failed |
| MNQQDIKQKVLDVLDHHKVGSLATVAAGAPHSRYMTFFHDGLTIYTPTSKETHKAEEIENNPNVHILLGYDCEGFGDAYVEVAGKAKINNSAELKDKIWSSKLERWFDGKDDPNLVILEIEPEDIRLMNAGEKTPVSLEL | not failed |
